Results from US20260034217A1 (REGENTS OF THE UNIVERSITY OF COLORADO A BODY CORPORATE, published 2026).

Target: CD64 (high affinity immunoglobulin gamma Fc receptor I) (human, UniProt P12314 16-374)
Test: cell-based or functional assay

CD64 (high affinity immunoglobulin gamma Fc receptor I), sequence (P12314 16-374, form in doubt): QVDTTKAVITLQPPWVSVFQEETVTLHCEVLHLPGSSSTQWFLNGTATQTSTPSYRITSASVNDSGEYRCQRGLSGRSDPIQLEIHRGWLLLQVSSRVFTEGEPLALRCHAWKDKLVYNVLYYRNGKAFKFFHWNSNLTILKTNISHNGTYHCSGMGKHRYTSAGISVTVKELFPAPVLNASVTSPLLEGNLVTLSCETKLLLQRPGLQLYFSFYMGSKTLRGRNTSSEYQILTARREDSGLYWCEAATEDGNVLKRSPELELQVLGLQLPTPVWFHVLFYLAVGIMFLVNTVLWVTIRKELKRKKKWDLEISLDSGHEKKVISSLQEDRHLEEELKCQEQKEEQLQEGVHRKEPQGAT

fold decrease in CD64+ AML cells (monocytic patient sample), flow cytometry, CAR-T with or without ven/aza: > 40 fold
B1: CD64-BB-m22 CAR (CD64 CAR containing the m22 scFv and a 4-1BB costimulatory domain) (other)
chain: EVQLVESGGGLVKPGGSLRLSCVASGFIFSDNYMYWVRQTPEKRLEWVATISDGGSYTYYPDSVKGRFTISRDNAKNNLYLQMSSLKSEDTAIYYCARGYYRYEGAMDYWGQGTSVTVSSGGGGSGGGGSGGGGSNIVMTQSPSSLAVSAGEKVTMSCKSSQSVLYSSNQKNYLAWYQQKPGQSPKLLIYWASTRESGVPDRFTGSGSGTDFTLTISSVQAEDLAVYYCHQYLSSWTFGGGTKLEIKTSTTTPAPRPPTPAPTIASQPLSLRPEACRPAAGGAVHTRGLDFACDIYIWAPLAGTCGVLLLSLVITLYCKRGRKKLLYIFKQPFMRPVQTTQEEDGCSCRFPEEEEGGCELSRVKFSRSADAPAYQQGQNQLYNELNLGRREEYDVLDKRRGRDPEMGGKPRRKNPQEGLYNELQKDKMAEAYSEIGMKGERRRGKGHDGLYQGLSTATKDTYDALHMQALPPR
fold decrease in viable AML cells (mixed monocytic/primitive patient sample), flow cytometry after 48 hours with CAR-T cells alone: 4.2 fold
